Literature values as cited in article PMC1976947.
pKd: −log10 of the molar value.

Biological target: G-CSF receptor (Mus musculus) (UniProt P40223)
Sequence of UniProt P40223 (P40223 26-837): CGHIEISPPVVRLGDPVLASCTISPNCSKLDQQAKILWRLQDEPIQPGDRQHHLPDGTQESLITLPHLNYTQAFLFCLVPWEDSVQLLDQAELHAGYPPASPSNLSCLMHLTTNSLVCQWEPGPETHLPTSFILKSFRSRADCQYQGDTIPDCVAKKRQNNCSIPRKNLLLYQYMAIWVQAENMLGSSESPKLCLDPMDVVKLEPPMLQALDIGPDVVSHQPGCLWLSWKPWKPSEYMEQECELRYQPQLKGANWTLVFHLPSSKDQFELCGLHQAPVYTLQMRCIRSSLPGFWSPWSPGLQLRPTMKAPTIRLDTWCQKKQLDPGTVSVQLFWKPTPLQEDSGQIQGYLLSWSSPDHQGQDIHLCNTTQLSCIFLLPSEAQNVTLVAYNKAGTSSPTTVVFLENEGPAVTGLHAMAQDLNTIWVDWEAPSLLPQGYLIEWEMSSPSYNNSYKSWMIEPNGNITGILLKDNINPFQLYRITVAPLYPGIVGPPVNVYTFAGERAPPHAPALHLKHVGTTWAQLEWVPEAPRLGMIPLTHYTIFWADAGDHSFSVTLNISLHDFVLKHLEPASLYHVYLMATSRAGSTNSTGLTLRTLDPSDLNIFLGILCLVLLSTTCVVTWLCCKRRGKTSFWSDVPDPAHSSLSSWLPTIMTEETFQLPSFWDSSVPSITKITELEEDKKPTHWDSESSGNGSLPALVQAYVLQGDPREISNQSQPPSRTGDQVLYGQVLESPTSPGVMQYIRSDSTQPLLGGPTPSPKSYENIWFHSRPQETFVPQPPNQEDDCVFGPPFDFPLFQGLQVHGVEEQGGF

Sequence of G-CSF (P09919 31-207): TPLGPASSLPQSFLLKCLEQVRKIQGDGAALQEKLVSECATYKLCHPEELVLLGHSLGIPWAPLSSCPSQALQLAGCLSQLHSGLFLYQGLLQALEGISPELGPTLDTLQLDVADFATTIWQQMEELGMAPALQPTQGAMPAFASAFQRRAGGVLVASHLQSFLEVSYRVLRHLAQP

G-CSF (from UniProt P09919)
pKd: 10.15
